Measurements reported in patent US20250340637A1 (ABPRO, published 2025).
Like-named read-outs stand apart in the source and are kept apart here.

Experiments:
Test in all cases: SPR, Biacore 8K; CD3 Affinity column: Low
HuCD3E [1] = biological target: T1, HuCD3E (Homo sapiens, UniProt P07766 23-126, limits assumed)
T1 construct: Recombinant analyte in SPR and antigen in ELISA; also called human CD3; human CD3 epsilon

HuCD3E [2] = biological target: T1, HuCD3E; remark: listed apart in the source
Method: Initially, the affinity measurement of the anti-CD3 clones were determined using a Surface Plasmon Resonance (SPR) biosensor, Biacore 8K (GE Healthcare). The equilibrium dissociation constant (KD) was calculated from the ratio of kd over ka. To determine the contribution of a specific residue to antibody affinity and expression, paratope mapping was performed by screening of NNK libraries. In brief, the VH and VL of the parental antibody were searched by using NCBI Ig-Blast (www.ncbi.nlm.nih.gov/projects/igblast/) and CDRs were defined by the KABAT delineation system. All residues within CDRs were defined and mutated by NNK method. Each individual NNK library was generated per residue based on the FASEBA platform with a theoretical diversity at 20. The DNA encoding both heavy chain and light chain were inserted into a mammalian expression vector, transfected into CHO-S cells, and stable clones of highest expression were selected. Supernatants were collected from shaker flasks and purified on protein A affinity chromatography.
Affinity ranking. Binding between the parental and affinity-tuned bispecific antibodies and human and cyno target proteins (HER2 and CD3) was validated by ELISA, and a Biacore 8K was used to study the kinetics of the interaction between the antigen and the bispecific antibodies.

HuCD3E [3] = biological target: T1, HuCD3E; remark: listed apart in the source
HuCD3E [4] = biological target: T1, HuCD3E; remark: listed apart in the source
HuCD3E [5] = biological target: T1, HuCD3E; remark: listed apart in the source

T1 sequence (P07766 23-126 limits assumed): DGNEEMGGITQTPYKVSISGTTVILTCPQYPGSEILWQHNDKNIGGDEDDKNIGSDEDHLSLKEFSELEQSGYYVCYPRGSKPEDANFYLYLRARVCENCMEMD

B1: 32G4-V8-v5.5 (antibody, V domains shown)
VH: EVQLVESGGGLVQPGGSLKLSCAASGFTFNTYAMNWVRQAPGKGLEWVARIRSKYNNYATYYADSVKDRFTISRDDSKNTAYLQMNSLKTEDTAVYYCVRHGNFGNSYVSWFMYWGQGTLVTVSS
VL: QTVVTQEPSLTVSPGGTVTLTCRSSTGAVTTSNYANWVQQKPGQAFRGLIGGTNKRAPGVPARFSGSLLGGKAALTLSGVQPEDEAIYFCALWYSNLWVFGGGTKLTVL
Q: How did the Kd (HuCD3E [1]) turn out when B1 was run?
A: Its Kd is over 100 nM.

B2: 32G4-V8-v5.6 (antibody, V domains shown)
VH: EVQLVESGGGLVQPGGSLKLSCAASGFTFNTYAMNWVRQAPGKGLEWVARIRSKYNNYATYYADSVKDRFTISRDDSKNTAYLQMNSLKTEDTAVYYCVRHGNFGNSYVSWFAYWGQGTLVTVSS
VL: QTVVTQEPSLTVSPGGTVTLTCRSSTGAVTTSNYANWVQQKPGQAFRGLIGGTNKRAPGVPARFSGSLLGGKAALTLSGVQPEDEAIYFCMLWYSNLWVFGGGTKLTVL
Q: Which Kd (HuCD3E [1]) does the source give for B2 here?
A: Its Kd is over 100 nM.

B3: ABP100s.10.5.5 (antibody, V domains shown)
VH: EVQLVESGGGLVQPGGSLKLSCAASGFTFNTYAMNWVRQAPGKCLEWVARIRSKYNNYATYYADSVKDRFTISRDDSKNTAYLQMNSLKTEDTAVYYCVRHGNFGNSYVSWFMYWGQGTLVTVSS
VL: QTVVTQEPSLTVSPGGTVTLTCRSSTGAVTTSNYANWVQQKPGQAFRGLIGGTNKRAPGVPARFSGSLLGGKAALTLSGVQPEDEAIYFCALWYSNLWVFGCGTKLTVL
Q: Which Kd (HuCD3E [2]) does the source give for B3 here?
A: The Kd was over 100 nM.

B4: 47D10-V7-v5.5 (antibody, V domains shown)
VH: EVQLVESGGGLVQPGGSLKLSCAASGFTFNTYAMNWVRQAPGKGLEWVARIRSKYNNYATYYADSVKDRFTISRDDSKNTAYLQMNSLKTEDTAVYYCVRHGNFGNSYVSWFMYWGQGTLVTVSS
VL: QTVVTQEPSLTVSPGGTVTLTCRSSTGAVTTSNYANWVQQKPGQAFRGLIGGTNKRAPGVPARFSGSLLGGKAALTLSGVQPEDEAIYFCALWYSNLWVFGGGTKLTVL
Q: With B4 as the binder, how does the Kd (HuCD3E [3]) read?
A: The Kd was over 100 nM.

B5: 47D10-V7-v5.6 (antibody, V domains shown)
VH: EVQLVESGGGLVQPGGSLKLSCAASGFTFNTYAMNWVRQAPGKGLEWVARIRSKYNNYATYYADSVKDRFTISRDDSKNTAYLQMNSLKTEDTAVYYCVRHGNFGNSYVSWFAYWGQGTLVTVSS
VL: QTVVTQEPSLTVSPGGTVTLTCRSSTGAVTTSNYANWVQQKPGQAFRGLIGGTNKRAPGVPARFSGSLLGGKAALTLSGVQPEDEAIYFCMLWYSNLWVFGGGTKLTVL
Q: For B5, which Kd (HuCD3E [3]) is on record?
A: The Kd was over 100 nM.

B6: ABP100s.10.0.5 (antibody, V domains shown)
VH: EVQLVESGGGLVQPGGSLKLSCAASGFTFNTYAMNWVRQAPGKCLEWVARIRSKYNNYATYYADSVKDRFTISRDDSKNTAYLQMNSLKTEDTAVYYCVRHGNFGNSYVSWFMYWGQGTLVTVSS
VL: QTVVTQEPSLTVSPGGTVTLTCRSSTGAVTTSNYANWVQQKPGQAFRGLIGGTNKRAPGVPARFSGSLLGGKAALTLSGVQPEDEAIYFCALWYSNLWVFGCGTKLTVL
Q: B6 was tested. Which Kd (HuCD3E [4]) did it give?
A: Its Kd is over 100 nM.

B7: ABP100s.10.0.6 (antibody, V domains shown)
VH: EVQLVESGGGLVQPGGSLKLSCAASGFTFNTYAMNWVRQAPGKCLEWVARIRSKYNNYATYYADSVKDRFTISRDDSKNTAYLQMNSLKTEDTAVYYCVRHGNFGNSYVSWFAYWGQGTLVTVSS
VL: QTVVTQEPSLTVSPGGTVTLTCRSSTGAVTTSNYANWVQQKPGQAFRGLIGGTNKRAPGVPARFSGSLLGGKAALTLSGVQPEDEAIYFCMLWYSNLWVFGCGTKLTVL
Q: How did the Kd (HuCD3E [4]) turn out when B7 was run?
A: Its Kd is over 100 nM.

B8: ABP100s.10.6.5 (antibody, V domains shown)
VH: EVQLVESGGGLVQPGGSLKLSCAASGFTFNTYAMNWVRQAPGKCLEWVARIRSKYNNYATYYADSVKDRFTISRDDSKNTAYLQMNSLKTEDTAVYYCVRHGNFGNSYVSWFMYWGQGTLVTVSS
VL: QTVVTQEPSLTVSPGGTVTLTCRSSTGAVTTSNYANWVQQKPGQAFRGLIGGTNKRAPGVPARFSGSLLGGKAALTLSGVQPEDEAIYFCALWYSNLWVFGCGTKLTVL
Q: How did the Kd (HuCD3E [2]) turn out when B8 was run?
A: The Kd was at least 100 nM.

B9: ABP100s.5.3 (antibody, V domains shown)
VH: EVQLVESGGGLVQPGGSLKLSCAASGFTFNTYAMNWVRQAPGKGLEWVARIRSKYNNYATYYADSVKDRFTISRDDSKNTAYLQMNSLKTEDTAVYYCVRHGNFGNSYVSWFAYWGQGTLVTVSS
VL: QTVVTQEPSLTVSPGGTVTLTCRSSTGAVTTSNYANWVQQKPGQAFRGLIGGTNKRAPGVPARFSGSLLGGKAALTLSGVQPEDEAIYFCALYYSNLWVFGGGTKLEIK
Q: How did the Kd (HuCD3E [5]) turn out when B9 was run?
A: The Kd was over 100 nM.

B10: ABP100s.10.5.6 (antibody, V domains shown)
VH: EVQLVESGGGLVQPGGSLKLSCAASGFTFNTYAMNWVRQAPGKCLEWVARIRSKYNNYATYYADSVKDRFTISRDDSKNTAYLQMNSLKTEDTAVYYCVRHGNFGNSYVSWFAYWGQGTLVTVSS
VL: QTVVTQEPSLTVSPGGTVTLTCRSSTGAVTTSNYANWVQQKPGQAFRGLIGGTNKRAPGVPARFSGSLLGGKAALTLSGVQPEDEAIYFCMLWYSNLWVFGCGTKLTVL
Q: B10 was tested. Which Kd (HuCD3E [2]) did it give?
A: Its Kd is over 100 nM.

B11: ABP100s.10.6.6 (antibody, V domains shown)
VH: EVQLVESGGGLVQPGGSLKLSCAASGFTFNTYAMNWVRQAPGKCLEWVARIRSKYNNYATYYADSVKDRFTISRDDSKNTAYLQMNSLKTEDTAVYYCVRHGNFGNSYVSWFAYWGQGTLVTVSS
VL: QTVVTQEPSLTVSPGGTVTLTCRSSTGAVTTSNYANWVQQKPGQAFRGLIGGTNKRAPGVPARFSGSLLGGKAALTLSGVQPEDEAIYFCMLWYSNLWVFGCGTKLTVL
Q: With B11 as the binder, how does the Kd (HuCD3E [1]) read?
A: Its Kd is at least 100 nM.
